# From IntAct's records for PubMed 16365431
# B1: Inhibitor of nuclear factor kappa-B kinase subunit beta (Homo sapiens), O14920 (parent)
# chain: MSWSPSLTTQTCGAWEMKERLGTGGFGNVIRWHNQETGEQIAIKQCRQELSPRNRERWCLEIQIMRRLTHPNVVAARDVPEGMQNLAPNDLPLLAMEYCQGGDLRKYLNQFENCCGLREGAILTLLSDIASALRYLHENRIIHRDLKPENIVLQQGEQRLIHKIIDLGYAKELDQGSLCTSFVGTLQYLAPELLEQQKYTVTVDYWSFGTLAFECITGFRPFLPNWQPVQWHSKVRQKSEVDIVVSEDLNGTVKFSSSLPYPNNLNSVLAERLEKWLQLMLMWHPRQRGTDPTYGPNGCFKALDDILNLKLVHILNMVTGTIHTYPVTEDESLQSLKARIQQDTGIPEEDQELLQEAGLALIPDKPATQCISDGKLNEGHTLDMDLVFLFDNSKITYETQISPRPQPESVSCILQEPKRNLAFFQLRKVWGQVWHSIQTLKEDCNRLQQGQRAAMMNLLRNNSCLSKMKNSMASMSQQLKAKLDFFKTSIQIDLEKYSEQTEFGITSDKLLLAWREMEQAVELCGRENEVKLLVERMMALQTDIVDLQRSPMGRKQGGTLDDLEEQARELYRRLREKPRDQRTEGDSQEMVRLLLQAIQSFEKKVRVIYTQLSKTVVCKQKALELLPKVEEVVSLMNEDEKTVVRLQEKRQKELWNLLKIACSKVRGPVSGSPDSMNASRLSQPGQLMSQPSTASNSLPEPAKKSEELVAEAHNLCTLLENAIQDTVREQDQSFTALDWSWLQTEEEEHSCLEQAS
# Variants of: B1
# Details: with ikba_human NFKBIA
row,Variant,effect of a mutation on the interaction
1,K44M,disrupting interaction
